Values quoted from earlier work in publication PMC6244792.
“And” between values parts separate entries of the source, which are not always exact repeats. Equal values may be shown once. Read-outs that look alike come from different tables or passages of the source.

Columns and labels:
[1] = target: LHCP L18 peptide (Arabidopsis thaliana); assay: ITC
[2] = target: cpSRP54 peptide RRKRp10 RRKRp10 (Arabidopsis thaliana) (UniProt P37107)
[3] = target: RRKRp10 (cpSRP54 C-terminal peptide) (Arabidopsis thaliana) (UniProt P37107)
[4] = target: LHCP L11 peptide (Arabidopsis thaliana); assay: FA
[5] = target: Alb3 C-terminus (Arabidopsis thaliana) (UniProt Q8LBP4); assay: FA
[6] = target: LHCP L18 peptide (Arabidopsis thaliana); assay: ITC; remark: listed apart in the source
[7] = target: cpSRP54 (Arabidopsis thaliana) (UniProt P37107); assay: FCS
[8] = target: cpSRP54 (Arabidopsis thaliana) (UniProt P37107); assay: MST
[9] = target: LHCP L11 peptide (Arabidopsis thaliana); assay: FA; remark: listed apart in the source
[10] = target: cpSRP54 M domain (Arabidopsis thaliana) (UniProt P37107); assay: SPR
[11] = target: cpFtsY (Arabidopsis thaliana) (UniProt O80842); assay: FRET
[12] = target: cpFtsY (Arabidopsis thaliana) (UniProt O80842); assay: FRET; remark: listed apart in the source
[13] = target: cpFtsY (Arabidopsis thaliana) (UniProt O80842); assay: FRET; remark: listed apart in the source

Chain of cpFtsY (Arabidopsis thaliana) (O80842 41-366): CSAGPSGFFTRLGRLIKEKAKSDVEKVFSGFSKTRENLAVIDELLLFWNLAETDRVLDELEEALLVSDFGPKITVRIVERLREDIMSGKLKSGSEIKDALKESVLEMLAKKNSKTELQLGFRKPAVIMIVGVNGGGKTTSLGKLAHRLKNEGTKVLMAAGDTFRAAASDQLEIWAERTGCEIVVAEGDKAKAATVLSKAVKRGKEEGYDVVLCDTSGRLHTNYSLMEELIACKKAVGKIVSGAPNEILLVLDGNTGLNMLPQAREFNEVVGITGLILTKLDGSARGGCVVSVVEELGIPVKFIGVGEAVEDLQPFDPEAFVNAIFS
Chain of cpSRP54 (P37107 76-564): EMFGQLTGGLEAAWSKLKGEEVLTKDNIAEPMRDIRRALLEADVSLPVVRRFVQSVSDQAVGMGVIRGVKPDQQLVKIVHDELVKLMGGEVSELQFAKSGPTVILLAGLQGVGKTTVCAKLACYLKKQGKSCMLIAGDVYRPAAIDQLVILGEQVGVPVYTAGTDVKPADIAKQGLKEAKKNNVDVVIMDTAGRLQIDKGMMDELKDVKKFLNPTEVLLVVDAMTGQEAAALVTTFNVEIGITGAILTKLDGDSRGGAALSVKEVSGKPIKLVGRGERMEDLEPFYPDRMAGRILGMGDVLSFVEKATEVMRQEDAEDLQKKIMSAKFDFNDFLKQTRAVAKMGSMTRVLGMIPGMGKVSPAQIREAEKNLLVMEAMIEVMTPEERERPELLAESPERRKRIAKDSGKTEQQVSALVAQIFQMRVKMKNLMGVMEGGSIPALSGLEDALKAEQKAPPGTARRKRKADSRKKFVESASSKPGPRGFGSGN
Chain of Alb3 C-terminus (Arabidopsis thaliana) (Q8LBP4 339-462): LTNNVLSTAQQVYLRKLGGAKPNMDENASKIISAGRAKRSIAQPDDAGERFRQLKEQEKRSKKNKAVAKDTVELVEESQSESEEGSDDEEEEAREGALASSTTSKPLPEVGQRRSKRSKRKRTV
Chain of cpSRP54 (Arabidopsis thaliana) (P37107 76-564): as the sequence (P37107 76-564) above
Chain of cpSRP54 peptide RRKRp10 RRKRp10 (Arabidopsis thaliana) (P37107 whole entry, looked up, tested part not stated): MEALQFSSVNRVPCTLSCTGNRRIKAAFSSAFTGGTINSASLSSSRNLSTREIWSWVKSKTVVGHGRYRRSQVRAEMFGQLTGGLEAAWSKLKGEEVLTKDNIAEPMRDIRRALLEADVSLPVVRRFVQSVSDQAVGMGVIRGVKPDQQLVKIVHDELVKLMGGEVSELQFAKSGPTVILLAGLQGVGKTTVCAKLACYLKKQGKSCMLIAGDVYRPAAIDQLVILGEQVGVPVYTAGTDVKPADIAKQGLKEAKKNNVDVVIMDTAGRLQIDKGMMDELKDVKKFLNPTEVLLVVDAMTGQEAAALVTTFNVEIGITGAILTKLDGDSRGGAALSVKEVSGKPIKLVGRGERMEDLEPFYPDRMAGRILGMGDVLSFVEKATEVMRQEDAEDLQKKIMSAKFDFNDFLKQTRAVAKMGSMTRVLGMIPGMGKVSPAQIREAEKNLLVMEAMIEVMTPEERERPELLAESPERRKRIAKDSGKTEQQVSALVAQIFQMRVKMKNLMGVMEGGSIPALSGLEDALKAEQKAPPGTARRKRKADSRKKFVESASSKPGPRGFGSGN
Chain of RRKRp10 (cpSRP54 C-terminal peptide) (Arabidopsis thaliana) (P37107 whole entry, looked up, tested part not stated): as above
Chain of cpSRP54 NG domain (P37107 76-370): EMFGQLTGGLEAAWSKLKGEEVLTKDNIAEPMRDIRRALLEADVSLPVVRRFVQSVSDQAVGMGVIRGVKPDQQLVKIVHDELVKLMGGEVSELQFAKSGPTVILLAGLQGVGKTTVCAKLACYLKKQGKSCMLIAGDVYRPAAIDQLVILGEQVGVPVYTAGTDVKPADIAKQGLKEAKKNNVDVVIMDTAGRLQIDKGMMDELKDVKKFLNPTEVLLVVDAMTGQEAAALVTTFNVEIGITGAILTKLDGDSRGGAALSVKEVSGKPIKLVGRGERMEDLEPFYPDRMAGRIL
Chain of cpSRP54 M domain (Arabidopsis thaliana) (P37107 371-564): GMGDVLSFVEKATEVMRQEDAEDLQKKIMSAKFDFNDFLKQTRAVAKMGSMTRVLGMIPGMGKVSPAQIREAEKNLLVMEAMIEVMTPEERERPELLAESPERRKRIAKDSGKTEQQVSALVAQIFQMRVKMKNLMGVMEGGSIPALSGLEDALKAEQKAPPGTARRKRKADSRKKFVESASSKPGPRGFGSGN

Kd [1] [nM] | Kd [2] [nM] | Kd [3] [nM] | Kd [4] [nM] | Kd [5] | Kd [6] | Kd [7] [nM] | Kd [8] [nM] | Kd [9] [nM] | Kd [10] [nM] | Kd [11] [nM] | Kd [12] [nM] | Kd [13] [nM] | Substance
107 | 390 | 390 | 11 | 18000 nM and 12000 nM and 15000 nM | 1170 nM and 322 nM | 95 | 50 | 22 | 2.5 | – | – | – | cpSRP43 (from UniProt O22265)
– | – | – | – | – | – | – | – | – | – | 2340 | 130 | 770 | cpSRP54 (from UniProt P37107)
– | – | – | – | – | – | – | – | – | – | 12000 | – | – | cpSRP54 NG domain (from UniProt P37107)
